{"source": "the RNAGym collection of RNA variant scans (doi:10.7554/elife.80360)", "parents": {"B1": {"name": "Hairpin Ribozyme (parent)", "chain": "GUCCUCUUUCACGUGCGCGUGAAAGAGAGAAGUGAACCAGAGAAACACACGUUGUGGUAUAUUACCUGGUA"}}}
{"variants_of": "B1", "assay": "self-cleavage, relative activity (ratio to wild type); higher = more cleavage; co-transcriptional"}
{"variant": "AUCCUCUUUCACGUGCGCGUGAAAGAGAGAAGUGAACCAGAGAAACAUACGUUGUGGUAUAUUACCUGGUA", "note": "[G1A C48U]", "self-cleavage": 0.0691}
{"variant": "AUCCUCUUUCACGUGCGCGUGAAAGAGAGAAGUGAACCAGAGAAACACACGUUGUGGUAUAUUAACUGGUA", "note": "[G1A C65A]", "self-cleavage": 0.285}
{"variant": "AUCCUCUUUCACGUGCGCGUGAAAGAGAGAAGUGAACCAGAGAAACACACGUUGUGGUAUAUUAGCUGGUA", "note": "[G1A C65G]", "self-cleavage": 0.0867}
{"variant": "AUCCUCUUUCACGUGCGCGUGAAAGAGAGAAGUGAACCAGAGAAACACACGUUGUGGUAUAUUAUCUGGUA", "note": "[G1A C65U]", "self-cleavage": 0.0307}
{"variant": "AUCCUCUUUCACCUGCGCGUGAAAGAGAGAAGUGAACCAGAGAAACACACGUUGUGGUAUAUUACCUGGUA", "note": "[G1A G13C]", "self-cleavage": 0.119}
{"variant": "AUCCUCUUUCACUUGCGCGUGAAAGAGAGAAGUGAACCAGAGAAACACACGUUGUGGUAUAUUACCUGGUA", "note": "[G1A G13U]", "self-cleavage": 0.208}
{"variant": "AUCCUCUUUCACGUGCACGUGAAAGAGAGAAGUGAACCAGAGAAACACACGUUGUGGUAUAUUACCUGGUA", "note": "[G1A G17A]", "self-cleavage": 0.0844}
{"variant": "AUCCUCUUUCACGUGCUCGUGAAAGAGAGAAGUGAACCAGAGAAACACACGUUGUGGUAUAUUACCUGGUA", "note": "[G1A G17U]", "self-cleavage": 0.127}
{"variant": "AUCCUCUUUCACGUGCGCGUAAAAGAGAGAAGUGAACCAGAGAAACACACGUUGUGGUAUAUUACCUGGUA", "note": "[G1A G21A]", "self-cleavage": 0.154}
{"variant": "AUCCUCUUUCACGUGCGCGUUAAAGAGAGAAGUGAACCAGAGAAACACACGUUGUGGUAUAUUACCUGGUA", "note": "[G1A G21U]", "self-cleavage": 0.127}
{"variant": "AUCCUCUUUCACGUGCGCGUGAAAGAGAGAACUGAACCAGAGAAACACACGUUGUGGUAUAUUACCUGGUA", "note": "[G1A G32C]", "self-cleavage": 0.318}
{"variant": "AUCCUCUUUCACGUGCGCGUGAAAGAGAGAAGUAAACCAGAGAAACACACGUUGUGGUAUAUUACCUGGUA", "note": "[G1A G34A]", "self-cleavage": 0.18}
{"variant": "AUCCUCUUUCACGUGCGCGUGAAAGAGAGAAGUGAACCAAAGAAACACACGUUGUGGUAUAUUACCUGGUA", "note": "[G1A G40A]", "self-cleavage": 0.199}
{"variant": "AUCCUCUUUCACGUGCGCGUGAAAGAGAGAAGUGAACCACAGAAACACACGUUGUGGUAUAUUACCUGGUA", "note": "[G1A G40C]", "self-cleavage": 0.167}
{"variant": "AUCCUCUUUCACGUGCGCGUGAAAGAGAGAAGUGAACCAUAGAAACACACGUUGUGGUAUAUUACCUGGUA", "note": "[G1A G40U]", "self-cleavage": 0.123}
{"variant": "AUCCUCUUUCACGUGCGCGUGAAAGAGAGAAGUGAACCAGACAAACACACGUUGUGGUAUAUUACCUGGUA", "note": "[G1A G42C]", "self-cleavage": 0.213}
{"variant": "AUCCUCUUUCACGUGCGCGUGAAAGAGAGAAGUGAACCAGAGAAACACACCUUGUGGUAUAUUACCUGGUA", "note": "[G1A G51C]", "self-cleavage": 0.0527}
{"variant": "AUCCUCUUUCACGUGCGCGUGAAAGAGAGAAGUGAACCAGAGAAACACACGUUAUGGUAUAUUACCUGGUA", "note": "[G1A G54A]", "self-cleavage": 0.191}
{"variant": "AUCCUCUUUCACGUGCGCGUGAAAGAGAGAAGUGAACCAGAGAAACACACGUUUUGGUAUAUUACCUGGUA", "note": "[G1A G54U]", "self-cleavage": 0.153}
{"variant": "AUCCUCUUUCACGUGCGCGUGAAAGAGAGAAGUGAACCAGAGAAACACACGUUGUAGUAUAUUACCUGGUA", "note": "[G1A G56A]", "self-cleavage": 0.181}
{"variant": "AUCCUCUUUCACGUGCGCGUGAAAGAGAGAAGUGAACCAGAGAAACACACGUUGUGCUAUAUUACCUGGUA", "note": "[G1A G57C]", "self-cleavage": 0.163}
{"variant": "AUCCUCUUUCACGUGCGCGUGAAAGAGAGAAGUGAACCAGAGAAACACACGUUGUGGUAUAUUACCUAGUA", "note": "[G1A G68A]", "self-cleavage": 0.21}
{"variant": "AUCCUCUUUCACGUGCGCGUGAAAGAGAGAAGUGAACCAGAGAAACACACGUUGUGGUAUAUUACCUUGUA", "note": "[G1A G68U]", "self-cleavage": 0.176}
{"variant": "ACCCUCUUUCACGUGCGCGUGAAAGAGAGAAGUGAACCAGAGAAACACACGUUGUGGUAUAUUACCUGGUA", "note": "[G1A U2C]", "self-cleavage": 0.899}
{"variant": "AGCCUCUUUCACGUGCGCGUGAAAGAGAGAAGUGAACCAGAGAAACACACGUUGUGGUAUAUUACCUGGUA", "note": "[G1A U2G]", "self-cleavage": 0.895}
{"variant": "AUCCACUUUCACGUGCGCGUGAAAGAGAGAAGUGAACCAGAGAAACACACGUUGUGGUAUAUUACCUGGUA", "note": "[G1A U5A]", "self-cleavage": 0.152}
{"variant": "AUCCUCGUUCACGUGCGCGUGAAAGAGAGAAGUGAACCAGAGAAACACACGUUGUGGUAUAUUACCUGGUA", "note": "[G1A U7G]", "self-cleavage": 0.148}
{"variant": "AUCCUCUGUCACGUGCGCGUGAAAGAGAGAAGUGAACCAGAGAAACACACGUUGUGGUAUAUUACCUGGUA", "note": "[G1A U8G]", "self-cleavage": 0.158}
{"variant": "AUCCUCUUACACGUGCGCGUGAAAGAGAGAAGUGAACCAGAGAAACACACGUUGUGGUAUAUUACCUGGUA", "note": "[G1A U9A]", "self-cleavage": 0.198}
{"variant": "AUCCUCUUCCACGUGCGCGUGAAAGAGAGAAGUGAACCAGAGAAACACACGUUGUGGUAUAUUACCUGGUA", "note": "[G1A U9C]", "self-cleavage": 0.167}
{"variant": "AUCCUCUUGCACGUGCGCGUGAAAGAGAGAAGUGAACCAGAGAAACACACGUUGUGGUAUAUUACCUGGUA", "note": "[G1A U9G]", "self-cleavage": 0.293}
{"variant": "AUCCUCUUUCACGAGCGCGUGAAAGAGAGAAGUGAACCAGAGAAACACACGUUGUGGUAUAUUACCUGGUA", "note": "[G1A U14A]", "self-cleavage": 0.127}
{"variant": "AUCCUCUUUCACGUGCGCGCGAAAGAGAGAAGUGAACCAGAGAAACACACGUUGUGGUAUAUUACCUGGUA", "note": "[G1A U20C]", "self-cleavage": 0.188}
{"variant": "AUCCUCUUUCACGUGCGCGGGAAAGAGAGAAGUGAACCAGAGAAACACACGUUGUGGUAUAUUACCUGGUA", "note": "[G1A U20G]", "self-cleavage": 0.188}
{"variant": "AUCCUCUUUCACGUGCGCGUGAAAGAGAGAAGAGAACCAGAGAAACACACGUUGUGGUAUAUUACCUGGUA", "note": "[G1A U33A]", "self-cleavage": 0.175}
{"variant": "AUCCUCUUUCACGUGCGCGUGAAAGAGAGAAGCGAACCAGAGAAACACACGUUGUGGUAUAUUACCUGGUA", "note": "[G1A U33C]", "self-cleavage": 0.0709}
{"variant": "AUCCUCUUUCACGUGCGCGUGAAAGAGAGAAGUGAACCAGAGAAACACACGAUGUGGUAUAUUACCUGGUA", "note": "[G1A U52A]", "self-cleavage": 0.155}
{"variant": "AUCCUCUUUCACGUGCGCGUGAAAGAGAGAAGUGAACCAGAGAAACACACGUUGAGGUAUAUUACCUGGUA", "note": "[G1A U55A]", "self-cleavage": 0.229}
